Patent US20240043859A1, “HERBICIDE-RESISTANT PROTEIN, AND GENE AND USE THEREOF” (QINGDAO KINGAGROOT CHEMICAL COMPOUND CO., LTD., priority 2020, published 2024)
“Also recorded” adds a separate entry of the source.

How the values were obtained:
[1] = Chromogenic reaction of degrading herbicides in bacteria: 2,4-D; type: cell-based, Escherichia coli; conditions: recombinant E. coli expressing the gene, 2,4-D added to the medium, red = phenols
Outline: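 E. coli BL21(DE3) carrying AAD12 or empty pET15b was induced with 0.1 mM IPTG plus 2 mM α-ketoglutarate and given 0.5 mM 2,4-D, then grown overnight at 28 °C. Supernatant was treated with pH 10 borate, potassium ferricyanide and 4-aminoantipyrine for 5 min at room temperature; red colour read at A510.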

[2] = type: cell-based, Escherichia coli
Method: To transform the plasmids to be tested, an AAD12-expressing plasmid and a blank control plasmid pET15b were respectively transformed into the protein expression E. coli BL21(DE3) strains. A monoclone was selected and inoculated in a 10 ml centrifuge tube with 3 ml LB medium, and cultivated at 37° C., 200 rpm for 6-8 hours. […] The temperature was switched to 28° C. and the cultivation continued overnight. In the next morning, 200 μL of each bacteria solution was taken and centrifuged to precipitate thallus, 180 μL of the supernatant was taken and added in a 96-well plate, and 20 μL of borate buffer of pH 10 was added. Then the mixture was added with 2 μL of 8% potassium ferricyanide and mixed well, followed by adding 2 μL of 2% 4-aminoantipyrine, and placed at room temperature for 5 min to observe the color and detect the A510 value. […]

Arabidopsis thaliana = assay: Herbicide resistance of transgenic Arabidopsis thaliana seedlings on plate medium (root growth); type: in vivo; conditions: Arabidopsis overexpressing the gene
Method: Expression in Arabidopsis thaliana was regulated by its AtUbi10 Arabidopsis thaliana ubiquitin promoter and the MAS (mannopine synthase) terminator. Hygromycin resistance gene (HygR=hpt) served as the selection marker.
Preparation of Agrobacterium infection solution: An activated Agrobacterium (GV3101) monoclone was picked and inoculated in 30 ml YEP liquid medium [yeast powder 10 g/L, tryptone 10 g/L, NaCl 5 g/L, 25 mg/L Rifampicin and 50 mg/L Kanamycin], shaking-cultured at 200 rmp/min, 28° C. overnight until the OD600 was about 1.0-1.5, then centrifuged at 6000 rmp/min for 10 min to collect the bacteria, and the supernatant was discarded. Arabidopsis thaliana infection solution (sucrose 50 g/L, Silwet L-77 300 μL/L, no need to adjust pH) was used to resuspend the cells to OD600=0.8 for later use.
Genetic transformation of Arabidopsis thaliana by flower dipping: Before transformation of Arabidopsis thaliana plants, attentions were paid to whether the plants were growing well, the inflorescences were abundant, and no stress response occurred. The first transformation was performed when plants were about 20 cm high. Plants could be properly watered if the soil was dry. The grown siliques were cut off with scissors the day before transformation. The inflorescences of the plants to be transformed were soaked in the above-mentioned Agrobacterium solution for 30 seconds to 1 minute, which was stirred gently during the period. And a layer of liquid film should appear on the infiltrated plant. The transformed plants were cultured in a dark environment for 24 hours, and then taken out and grown in a normal light environment. A second transformation could be performed in the same way a week later.
Seeds were treated with disinfectant for 5 min, washed with sterile water for 5 times and then one part was spread on MS transgenic screening medium (containing 30 μg/mL hygromycin, 100 μg/mL carbenicillin) to screen transgenic seedlings, and the other part was spread on MS medicated medium [containing 250 μg/mL Cefotaxime sodium and 0.3 μM 2,4-D] to screen herbicide-resistant seedlings at mean time. The petri dish spread with seeds was placed at 4° C. for vernalization for 3 days, and taken out to a illumination incubator for cultivation (temperature of 22° C., 16 hours of light, 8 hours of darkness, light intensity of 100-150 μmol/m^2/s, humidity of 75%). After one week, it was observed that the roots of the wild-type control seedlings were not elongated and their growth was inhibited, while the transgenic seedlings had normal root growth, showing drug resistance. The transgenic positive seedlings and herbicide-resistant seedlings were photographed and transplanted into small pots filled with soil for cultivation.
The transgenic lines with the nine vectors, pQY2309, pQY2310, pQY2311, pQY2312, pQY2313, pQY2314, pQY2315, pQY2316 and pQY2317, overexpressing AAD gene in the T2 generation were further tested on plate medium for their resistance to 2,4-D, 2,4-DB sodium and MCPA herbicide. Two events were tested for each transformant.

B1: QYD75: AAD-like enzyme, SEQ ID NO. 149 (protein)
chain: MPSFNIAPIDASFGAVVTGIRLATVDDERWRELHQAWLEHALLIFPGQHLSRDEQISFARRFGPLEFDMAAISNVKSDGTLRIEADNDDVVKILKGNMGWHADSTYMSVQAKGAVFSAEVVPAAGGQTGFADMRAAYDALDDGLRTKVETLAAHHSLHYSQAKLGHQPEAGSAYSGYGFHAGPVPLRPLVKTHPETGRKSLLIGRHAHNIPGLDPDESERLLDELVDFACQAPRVYHHSWSAGDVVIWDNRCLLHRATPWDMTQPRVMWHSRIAGDPVAEASLN
modifications: Synthetic polypeptide, QYD75, D75
Chromogenic reaction of degrading herbicides in bacteria: 2,4-D [1]: Yes | Chromogenic reaction of degrading herbicides in bacteria: 2,4-D ([1]; listed as D75): could degrade 2,4-D; also recorded: capable of degrading 2,4-D | Chromogenic reaction of degrading herbicides in bacteria: MCPA [2]: Yes

B2: QYD21: AAD-like enzyme, SEQ ID NO. 41 (protein)
chain: MTTIETKPLTPCFGVEVSGMTLSEVSKGHDFARLRDLFEEHSALLFRAQEISNEEHMALAQLFGPIEDRKADERKPGEAFEVPEVSNVQKDGTTSGEMDLHTLNLKSNFLWHSDSTFLPTPALTNILIGRVVTTEGGATELASTRAAWAAMPEELKSRIRGRGIWHRYSHSRRKISPELAKLPMFNKWPDQHWSAVWPNPVNGREGLYIASHAFKVDGYDEAESQELLDELMAFCTQPEFTYAHQWNVGDVLIWDQRAVLHRGTPWPYEQPRTLSSICVSVTEADGIGSIRMPA
modifications: Synthetic polypeptide, QYD21, D21
Chromogenic reaction of degrading herbicides in bacteria: 2,4-D [1]: Yes | Chromogenic reaction of degrading herbicides in bacteria: 2,4-D ([1]; listed as D21): could degrade 2,4-D; also recorded: capable of degrading 2,4-D | Chromogenic reaction of degrading herbicides in bacteria: MCPA [2]: Yes | Resistance of transgenic Arabidopsis thaliana: 2,4-D (Arabidopsis thaliana): Yes

B3: QYD54: AAD-like enzyme, SEQ ID NO. 107 (protein)
chain: MARMFDIAPLDATFGAVVTGVKVTRIDDATWRDLHAAWLEYALLIFPGQFLSRAEQIAFAKRFGPLEFEMAPISNVKADGTIRIEADNDDVVKVLKGNMGWHADSTYMPVQAKGAVFSAEVVPGEGGRTGWADMRAAYDALDAARRVRVESLTAYHSLYYSQAKLGHQPKRGSDYSGYGFHDGPVPRRPLVKVHPETGRKSLLIGRHAHNIPGMDVAESTQFLESLVDFACQPPRIYHHQWTAGDAVVWDNRCLLHRATPWDMTKPRVMWHSRIAGDPVSEASLG
modifications: Synthetic polypeptide, QYD54, D54
Chromogenic reaction of degrading herbicides in bacteria: 2,4-D [1]: Yes | Chromogenic reaction of degrading herbicides in bacteria: 2,4-D ([1]; listed as D54): could degrade 2,4-D; also recorded: capable of degrading 2,4-D | Chromogenic reaction of degrading herbicides in bacteria: MCPA [2]: Yes

B4: QYD62: AAD-like enzyme, SEQ ID NO. 123; 100.00% identical to US20140141044-13793 (for medical field) (protein)
chain: MTIAIRQLHKHFVGEVSGLDLRKPLTADEARDIEAAMDKYAVLVFHDQDITDEQQMAFALNFGQREDARGGTVTKAKDYRLQSGLNDVSNLGKDGKPLAKDSRTHLFNLGNCLWHSDSSFRPIPAKFSLLSARVVNPKGGNTEFADMRAAYDALDDETKTEIEDLVCEHSLMYSRGSLGFTEYTDEEKEMFKPVLQRLVRTHPVHRRKSLYLSSHAGKVVGMSVPEGRLLLRDLNEHATQPEFVYVHKWKLHDLVMWDNRQTMHRVRRYDQSQPRDMRRATVAGTEPTVQQQAAE
modifications: Synthetic polypeptide, QYD62, D62
Chromogenic reaction of degrading herbicides in bacteria: 2,4-D [1]: Yes | Chromogenic reaction of degrading herbicides in bacteria: 2,4-D ([1]; listed as D62): could degrade 2,4-D; also recorded: capable of degrading 2,4-D | Chromogenic reaction of degrading herbicides in bacteria: MCPA [2]: Yes

B5: QYD26: AAD-like enzyme, SEQ ID NO. 51 (protein)
chain: MSEFIYTLPSHNRAASYSHIRVTPTTGAIGADVENLDLTRLSDEGFAELRQALLAHKVIFIRDQALSVADLERVTQHLGEFGREPYVTCMADHPHVVHVVKEASEKAPFVFGGAWHTDWTFQERPPAFTLLYGHDIPPYGGDTCYANLALAYEWLSPGMQALLENLDAVHSPEMAYGVNAKHNALLENMAINYGSDTSADERSHPLVTRHPETGKKVLFINPAYTTGIKGLRTEESRPLLDYLFKLATSEAFTCRMRWRQGTLAIWDNRSTWHMPVADYHGMRREMFRTTVIGEVPSR
modifications: Synthetic polypeptide, QYD26, D26
Chromogenic reaction of degrading herbicides in bacteria: 2,4-D [1]: Yes | Chromogenic reaction of degrading herbicides in bacteria: 2,4-D ([1]; listed as D26): red reactions | Chromogenic reaction of degrading herbicides in bacteria: MCPA [2]: Yes | Resistance of transgenic Arabidopsis thaliana: 2,4-D (Arabidopsis thaliana): Yes

B6: QYD32: AAD-like enzyme, SEQ ID NO. 63 (protein)
chain: MSQMTFEPLSGPTFGARVHGVKLTAMDDAAFRELHDNWLEYGLLIVPEQFLTREEQIAFARRFGDLEFEIAEIGNMRDDGSLRPDDGSDEMMKINRGNMGWHHDSTYMPVQAKGAVFSAEIVPQEGGATGFADMRAAYDELDDAMKARIENLRAHHSLHHSQGKVGHKTKPVKDGKVNAGGTFGGYGLHDGPVSVRPLVKVHPETGRKNLLVGRHAYDIIGMSSEESEKLLQDLVDFACQPPRIYHHQWAPGDAVIWDNRRLMHQATPWPFDQARRMWHSRIAGDPATEAAMAA
modifications: Synthetic polypeptide, QYD32, D32
Chromogenic reaction of degrading herbicides in bacteria: 2,4-D [1]: Yes | Chromogenic reaction of degrading herbicides in bacteria: 2,4-D ([1]; listed as D32): red reactions | Chromogenic reaction of degrading herbicides in bacteria: MCPA [2]: NO | Resistance of transgenic Arabidopsis thaliana: 2,4-D (Arabidopsis thaliana): Yes

B7: QYD33: AAD-like enzyme, SEQ ID NO. 65 (protein)
chain: MSEHFDVEPLDASFGARITGLKLTEMSDAAFDALYETWLEHGLLLFPDQHMEPEAQVDVARRFGPLEVKLFAISNLKDDGSVRTSDEDDLVKILKGNMGWHHDSTYMPLQAKGAVFSAHVVPSEGGETGFADMRQAWDALDDDMKRRLEGLTALHSLHYSQMKAGFRRKEKDSEYIGYGLDERPPVRRQMVKVHPETGRKSLLVGRHAFGVSGMSEKESEEFVDGLNEFAGSGDWTYHHKWTPGEVVLWDNRCLMHRACPWDMTKPRVMYHSRIAGDPVSEAEVAA
modifications: Synthetic polypeptide, QYD33, D33
Chromogenic reaction of degrading herbicides in bacteria: 2,4-D [1]: Yes | Chromogenic reaction of degrading herbicides in bacteria: 2,4-D ([1]; listed as D33): red reactions | Chromogenic reaction of degrading herbicides in bacteria: MCPA [2]: NO

B8: QYD35: AAD-like enzyme, SEQ ID NO. 69 (protein)
chain: MSARPFTVEPLPATFGARITGLDLAALDDATFAALYDAWLEYALLIFPGAGLSTAEQVTFARRFGDMEFDIAPLSNVRKDGSLRADDGTDDVVKVLRGNMGWHADSTYMPVQAKGAVFSAHVVPEEGGETGWADMRAAYDALDDDLRRRIEGLSAHHSLVHSQARLGHAHGTDSEYSGYGFHDEAPLRPLVKVHPETGRRSLLIGRHAYGIPGLEETASERLLDELVDFACRPPRVYHHRWQVGDVVLWDNRCLLHRACPWDMSRPRVMYHSRIAGDPVTEAGLAGQSEQPSASGS
modifications: Synthetic polypeptide, QYD35, D35
Chromogenic reaction of degrading herbicides in bacteria: 2,4-D [1]: Yes | Chromogenic reaction of degrading herbicides in bacteria: 2,4-D ([1]; listed as D35): red reactions | Chromogenic reaction of degrading herbicides in bacteria: MCPA [2]: NO
